The results in this text go back to PMC5932034 (2018).

Experiment [1] concerns the target fused FliT−FliD^C construct (FliD^C fused to the N terminus of FliT) (Salmonella enterica serovar Typhimurium …, UniProt P16328). Kind of experiment: ITC.
The target of experiment [2] is FliT−FliD chaperone–substrate complex (non-fused) (Salmonella enterica serovar Typhimurium …, UniProt P0A1N2 1-122; P16328 1-467). Kind of experiment: ITC. For orientation: In ITC the heat of successive injections is recorded.
Sequence of FliT−FliD chaperone–substrate complex (non-fused) (P0A1N2 whole entry, chain 1 of 2, the tested form may be a part): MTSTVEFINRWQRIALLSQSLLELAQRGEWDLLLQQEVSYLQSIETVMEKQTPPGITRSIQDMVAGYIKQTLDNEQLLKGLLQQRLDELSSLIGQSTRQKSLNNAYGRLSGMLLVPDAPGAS
Sequence of FliT−FliD chaperone–substrate complex (non-fused) (P16328 whole entry, chain 2 of 2, the tested form may be a part): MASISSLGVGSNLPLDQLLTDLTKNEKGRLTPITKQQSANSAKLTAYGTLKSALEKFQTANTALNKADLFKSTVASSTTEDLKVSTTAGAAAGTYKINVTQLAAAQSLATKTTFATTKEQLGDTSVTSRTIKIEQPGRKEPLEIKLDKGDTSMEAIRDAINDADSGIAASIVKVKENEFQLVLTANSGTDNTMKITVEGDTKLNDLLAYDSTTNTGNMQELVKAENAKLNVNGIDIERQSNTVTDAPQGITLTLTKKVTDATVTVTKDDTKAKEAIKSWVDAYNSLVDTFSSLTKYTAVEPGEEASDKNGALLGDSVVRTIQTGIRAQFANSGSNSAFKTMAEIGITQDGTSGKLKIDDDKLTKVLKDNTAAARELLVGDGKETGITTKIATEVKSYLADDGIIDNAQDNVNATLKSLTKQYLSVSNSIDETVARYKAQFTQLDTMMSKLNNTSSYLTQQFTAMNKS

B1: cytoplasmic domain of Salmonella enterica serovar Typhimurium FlhA (FlhA^C) (domain or fragment)
chain: SLGMEVGYRLIPMVDFQQDGELLGRIRSIRKKFAQDMGFLPPVVHIRDNMDLQPARYRILMKGVEIGSGDAYPGRWLAINPGTAAGTLPGEKTVDPAFGLDAIWIESALKEQAQIQGFTVVEASTVVATHLNHLIGQFSAELFGRQEAQQLLDRVSQEMPKLTEDLVPGVVTLTTLHKVLQNLLAEKVPIRDMRTILETLAEHAPLQSDPHELTAVVRVALGRAITQQWFPGNEEVQVIGLDTALERLLLQALQGGGGLEPGLADRLLAQTQEALSRQEMLGAPPVLLVNHALRPLLSRFLRRSLPQLVVLSNLELSDNRHIRMTATIGGK
A word on the Kd: it is a measure of binding affinity in units of concentration. In the case of B1, the results for the Kd in experiment [1] and in experiment [2] were about 29 µM and about 25 µM, respectively.
